According to patent US20240343803A1 (SHANDONG SIMCERE BIOPHARMACEUTICAL, published 2024):
Read-outs that look alike come from different tables or passages of the source.

T1: Fusion protein of extracellular domain of human TIGIT and mouse IgG2a Fc fragment (human TIGIT ECD-mFc) (human)
T1 construct: The entry includes the signal peptide (limits not recoverable) and the mouse IgG2a Fc
T1 chain: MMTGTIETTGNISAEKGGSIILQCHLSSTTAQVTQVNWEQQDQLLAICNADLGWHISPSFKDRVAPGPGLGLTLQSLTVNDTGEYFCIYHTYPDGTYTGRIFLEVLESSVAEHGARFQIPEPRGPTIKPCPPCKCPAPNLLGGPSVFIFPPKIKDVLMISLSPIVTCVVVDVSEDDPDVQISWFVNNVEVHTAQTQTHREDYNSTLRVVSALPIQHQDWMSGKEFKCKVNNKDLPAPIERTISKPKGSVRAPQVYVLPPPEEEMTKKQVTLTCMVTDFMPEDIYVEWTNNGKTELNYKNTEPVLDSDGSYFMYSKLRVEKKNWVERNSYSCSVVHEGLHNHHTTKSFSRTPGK

T2: Fusion protein of extracellular domain of human TIGIT and His-tag (human TIGIT ECD-his) (human)
T2 chain: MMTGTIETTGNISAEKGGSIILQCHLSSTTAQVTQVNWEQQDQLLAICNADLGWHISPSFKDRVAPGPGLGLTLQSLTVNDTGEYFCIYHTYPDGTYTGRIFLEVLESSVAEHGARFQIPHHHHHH

T3: Full-length human TIGIT on CHO-K1 cells (CHO-K1 human TIGIT) (human, UniProt Q495A1 22-244)
T3 construct: NCBI XP_024309156.1; the entry includes the signal peptide (limits not recoverable); The strain (high, medium, low) is named under assay; also called high expression strain 1D2; medium expression strain 2D10
T3 sequence: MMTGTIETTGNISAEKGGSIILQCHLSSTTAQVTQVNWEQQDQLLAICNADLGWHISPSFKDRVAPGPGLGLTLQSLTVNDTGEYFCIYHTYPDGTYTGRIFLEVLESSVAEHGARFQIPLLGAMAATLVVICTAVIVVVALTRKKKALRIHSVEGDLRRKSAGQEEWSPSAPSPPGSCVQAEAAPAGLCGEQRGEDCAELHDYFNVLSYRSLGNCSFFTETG

T4: human TIGIT ECD-mFc (human)
T4 construct: also called human TIGIT protein; fusion protein of extracellular domain of human TIGIT and mouse IgG2a Fc fragment
T4 chain: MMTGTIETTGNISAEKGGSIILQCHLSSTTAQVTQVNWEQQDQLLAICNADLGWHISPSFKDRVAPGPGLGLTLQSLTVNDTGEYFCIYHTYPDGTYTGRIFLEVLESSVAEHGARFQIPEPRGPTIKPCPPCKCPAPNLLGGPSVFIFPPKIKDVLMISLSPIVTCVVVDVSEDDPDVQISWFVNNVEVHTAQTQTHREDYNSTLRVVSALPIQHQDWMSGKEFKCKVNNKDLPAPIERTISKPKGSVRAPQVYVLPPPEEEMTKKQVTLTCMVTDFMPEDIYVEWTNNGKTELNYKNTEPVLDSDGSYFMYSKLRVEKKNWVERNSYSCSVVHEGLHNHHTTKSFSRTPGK


Tests used:
[1] = biological target: T1, Fusion protein of extracellular domain …; test: ELISA, human TIGIT ECD-mFc
Method in brief: (§1)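 Plates blocked with 5% skim milk-PBS at 37° C for 2-4 h. Test antibodies applied as a 12-point 3-fold series from 13 nM for 1.5-2 h at 37° C. Read-out: HRP secondary (1:5000, 1 h, 37° C), TMB colour for 7-10 min at room temperature, acid stop, absorbance at OD450 nm.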

[2] = biological target: T2, Fusion protein of extracellular domain …; test: BIAcore; KD ratio to TIGIT-CHI-070
[3] = biological target: T5, Fusion protein of extracellular domain of human TIGIT and human IgG1 Fc fragment (human TIGIT ECD-hFc) (human); test: blocking of TIGIT ECD-hFc binding to CHO-K1 CD155 cells
T5 construct: The entry includes the signal peptide (limits not recoverable) and the human IgG1 Fc
T5 sequence (chain, as listed by the source limits assumed): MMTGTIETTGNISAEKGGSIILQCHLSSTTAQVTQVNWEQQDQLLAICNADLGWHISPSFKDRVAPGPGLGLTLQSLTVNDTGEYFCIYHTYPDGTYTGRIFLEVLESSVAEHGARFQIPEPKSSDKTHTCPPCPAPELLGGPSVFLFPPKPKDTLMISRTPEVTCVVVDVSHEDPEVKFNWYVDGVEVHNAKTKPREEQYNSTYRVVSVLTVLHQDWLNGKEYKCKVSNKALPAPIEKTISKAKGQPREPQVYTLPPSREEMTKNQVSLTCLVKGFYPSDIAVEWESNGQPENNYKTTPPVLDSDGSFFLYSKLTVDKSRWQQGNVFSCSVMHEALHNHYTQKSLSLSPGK
Method in brief: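 The inhibition curves from which IC50 was calculated were generated by cell-based ELISA. Fixed CHO-K1 CD155 cells, blocked with 5% skim milk-PBS, were incubated at 37° C for 1.5-2 h with antibodies that had been premixed for 0.5 h with human TIGIT ECD-hFc at a working concentration of 30 ng/mL. Detection of bound TIGIT used HRP secondary antibody at 1:5000 for 1 h at 37° C, followed by TMB and reading as OD450 nm.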

[4] = biological target: T2, Fusion protein of extracellular domain …; test: BIAcore
[5] = biological target: T6, Fusion protein of extracellular domain of cynomolgus monkey TIGIT and mouse IgG2a Fc fragment (cynomolgus … (cynomolgus monkey)); test: ELISA, cynomolgus monkey TIGIT ECD-mFc
T6 construct: The entry includes the signal peptide (limits not recoverable) and the mouse IgG2a Fc
T6 sequence (chain, as listed by the source limits assumed): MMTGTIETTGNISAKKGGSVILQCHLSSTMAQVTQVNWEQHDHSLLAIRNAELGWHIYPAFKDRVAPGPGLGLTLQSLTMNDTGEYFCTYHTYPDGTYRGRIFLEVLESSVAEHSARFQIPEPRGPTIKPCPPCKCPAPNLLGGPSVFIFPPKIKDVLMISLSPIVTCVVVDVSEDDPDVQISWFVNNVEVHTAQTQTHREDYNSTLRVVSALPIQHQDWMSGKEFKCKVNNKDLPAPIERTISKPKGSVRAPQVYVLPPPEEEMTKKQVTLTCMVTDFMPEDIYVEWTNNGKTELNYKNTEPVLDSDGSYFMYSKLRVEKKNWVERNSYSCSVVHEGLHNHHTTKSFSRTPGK
Method in brief: as §1

[6] = biological target: T7, Full-length cynomolgus monkey TIGIT on CHO-K1 cells (CHO-K1 cynomolgus monkey TIGIT) (cynomolgus monkey); test: cell binding, CHO-K1 cynomolgus monkey TIGIT
T7 construct: NCBI XP_015300911.1
T7 sequence (chain, as listed by the source limits assumed): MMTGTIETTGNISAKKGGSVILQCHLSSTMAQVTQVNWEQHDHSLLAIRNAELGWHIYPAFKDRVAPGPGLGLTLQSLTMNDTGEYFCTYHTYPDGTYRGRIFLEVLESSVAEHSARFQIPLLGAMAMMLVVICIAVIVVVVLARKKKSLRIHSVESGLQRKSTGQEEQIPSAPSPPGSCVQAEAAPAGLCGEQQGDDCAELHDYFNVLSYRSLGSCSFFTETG
Method in brief: (§2)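 Binding was measured by flow cytometry after a 60-minute, 4° C incubation of the antibodies with 2×10⁵ CHO-K1 cells displaying full-length human or cynomolgus monkey TIGIT. Antibody titration: 12 points, threefold serial dilution from 80 nM, in 1% BSA-PBS.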

[7] = biological target: T3, Full-length human TIGIT on CHO-K1 cells …; test: cell binding, CHO-K1 human TIGIT high expression strain
Method in brief: as §2

[8] = biological target: T8, cynomolgus monkey TIGIT ECD-mFc (cynomolgus monkey); test: ELISA, cynomolgus TIGIT ECD-mFc captured by anti-mouse IgG
T8 construct: also called cynomolgus monkey TIGIT protein
Method: (§3) After washing with blocking buffer, the plate was added with 50 μL/well of 30 ng/ml human TIGIT ECD-mFc (in house) or cynomolgus monkey TIGIT ECD-mFc (in house) and incubated at 37° C. for 2.0 hours. After washing the plate, the serial diluted antibodies (initial concentration 13 nM, 3-fold serial dilution, 12 concentration points) were added into the plate (50 μL/well) and incubated at 37° C. for 2.0 hours. After washing the plate, the goat anti-human IgG Fc-HRP (Merck, Cat NO. AP113P)) working solution (dilution ratio 1:5000, 50 μL/well) were added into wells and incubated at 37° C. for 1.0 hour. A HRP substrate, TMB (KPL, Cat NO. 5120-0077) was added into wells after washing the plate again for color development. After adding a termination solution to terminate the reaction, the absorbance value was read by a microplate reader (PE, Ensight-HH3400). An antibody binding curve was drawn with molar concentration of antibodies as the abscissa and the corresponding OD value as the ordinate. The EC50 value was calculated by using a Four Parameter Logistic Fit (GraphPad Prism9). […] The positive control antibodies are RG6058-hIgG1, TIGIT-002-H4L3 and TIGIT-005-H2Lld; and the negative control antibodies are anti-Fluorescein-hIgG1 (in house). The binding results of the 4 humanized bispecific antibodies to human TIGIT protein are shown in FIG. 43 and Tables 42 and 43, and the binding results to cynomolgus monkey TIGIT are shown in FIG. 44 and Tables 42 and 43.

human TIGIT ECD-mFc [9] = biological target: T4, human TIGIT ECD-mFc; test: ELISA, human TIGIT ECD-mFc captured by anti-mouse IgG
Method: as §3

[10] = biological target: T8, cynomolgus monkey TIGIT ECD-mFc; test: ELISA, cynomolgus TIGIT ECD-mFc captured by anti-mouse IgG; remark: listed apart in the source
Method: as §3

human TIGIT ECD-mFc [11] = biological target: T4, human TIGIT ECD-mFc; test: ELISA, human TIGIT ECD-mFc captured by anti-mouse IgG
Method: as §3

Binder | EC50 [1] [nM] | Fold change vs chimeric antibodies (KD) [2] [fold] | IC50 [3] [nM] | Kd [4] [nM] | koff [4] [s⁻¹] | kon [4] [M⁻¹ s⁻¹] | EC50 [5] [nM] | EC50 [6] [nM] | EC50 [7] [nM] | further results
TIGIT-070-H2L2 (antibody, V domains shown, Humanized anti-TIGIT antibody) VH: EVQLVQSGAEVKKPGASVKVSCKASGYTFTNYYMHWVRQAPGQRLEWMGRIDPDSGGSKYNEKFKSRVTITVDKLSSTAYMELSSLRSEDTAVYYCAREGHYGFYSDYWGQGTTVTVSS VL: DIQMTQSPSSLSASVGDRVTITCRVSENIYSYLAWYQQKPGKSPKLLVYNAKTLAEGVPSRFSGSGSGTDFTLTISSLQPEDFATYYCQHHYGNPLTFGPGTKVDIK | 0.0125 | 0.87 | 0.448 | 0.0851 | 0.000142 | 1.67e+06 | 0.0112 | 0.0662 | 0.0312 | –
TIGIT-070-H2L3 (antibody, V domains shown, Humanized anti-TIGIT antibody) VH: EVQLVQSGAEVKKPGASVKVSCKASGYTFTNYYMHWVRQAPGQRLEWMGRIDPDSGGSKYNEKFKSRVTITVDKLSSTAYMELSSLRSEDTAVYYCAREGHYGFYSDYWGQGTTVTVSS VL: DIVMTQSPDSLAVSLGERATINCRVSENIYSYLAWYQQKPGQSPKLLVYNAKTLAEGVPDRFSGSGSGTDFTLTISSLQAEDVAVYYCQHHYGNPLTFGPGTKVDIK | 0.0119 | 0.77 | 0.35 | 0.0756 | 0.000134 | 1.77e+06 | 0.0119 | 0.0774 | 0.0209 | –
TIGIT-070-H3L2 (antibody, V domains shown, Humanized anti-TIGIT antibody) VH: EVQLVQSGAEVKKPGASVKVSCKASGYTFTNYYMHWVRQAPGQGLEWMGRIDPDSGGSKYNEKFKSRVTITVDKLSSTAYMELSSLRSEDTAVYYCAREGHYGFYSDYWGQGTTVTVSS VL: DIQMTQSPSSLSASVGDRVTITCRVSENIYSYLAWYQQKPGKSPKLLVYNAKTLAEGVPSRFSGSGSGTDFTLTISSLQPEDFATYYCQHHYGNPLTFGPGTKVDIK | 0.0143 | 1.32 | 0.423 | 0.129 | 0.000168 | 1.3e+06 | 0.0157 | 0.0665 | 0.0276 | –
TIGIT-070-H3L3 (antibody, V domains shown, Humanized anti-TIGIT antibody) VH: EVQLVQSGAEVKKPGASVKVSCKASGYTFTNYYMHWVRQAPGQGLEWMGRIDPDSGGSKYNEKFKSRVTITVDKLSSTAYMELSSLRSEDTAVYYCAREGHYGFYSDYWGQGTTVTVSS VL: DIVMTQSPDSLAVSLGERATINCRVSENIYSYLAWYQQKPGQSPKLLVYNAKTLAEGVPDRFSGSGSGTDFTLTISSLQAEDVAVYYCQHHYGNPLTFGPGTKVDIK | 0.0151 | 1.17 | 0.417 | 0.115 | 0.000151 | 1.31e+06 | 0.0142 | 0.0556 | 0.03 | –
TIGIT-070-H1L3 (antibody, V domains shown, Humanized anti-TIGIT antibody) VH: EVQLVQSGAEVKKPGASVKVSCKASGYTFTNYYMHWVRQAPGQRLEWMGRIDPDSGGSKYNEKFKSRVTITVDKSASTAYMELSSLRSEDTAVYYCAREGHYGFYSDYWGQGTTVTVSS VL: DIVMTQSPDSLAVSLGERATINCRVSENIYSYLAWYQQKPGQSPKLLVYNAKTLAEGVPDRFSGSGSGTDFTLTISSLQAEDVAVYYCQHHYGNPLTFGPGTKVDIK | 0.0148 | 0.74 | 0.445 | 0.0724 | 0.000129 | 1.78e+06 | 0.0137 | 0.112 | 0.024 | –
TIGIT-070-H3L1 (antibody, V domains shown, Humanized anti-TIGIT antibody) VH: EVQLVQSGAEVKKPGASVKVSCKASGYTFTNYYMHWVRQAPGQGLEWMGRIDPDSGGSKYNEKFKSRVTITVDKLSSTAYMELSSLRSEDTAVYYCAREGHYGFYSDYWGQGTTVTVSS VL: DIQMTQSPSSLSASVGDRVTITCRVSENIYSYLAWYQQKPGKSPKLLIYNAKTLAEGVPSRFSGSGSGTDFTLTISSLQPEDFATYYCQHHYGNPLTFGPGTKVDIK | 0.0131 | 1.23 | 0.463 | 0.121 | 0.000152 | 1.26e+06 | 0.0139 | 0.0741 | 0.0132 | –
TIGIT-002-H4L3 (antibody, V domains shown) VH: EVQLQESGPGLVKPSETLSLTCAVSGYSITSDSWNWIRQPPGKKLEYIGYISYSGNTYYNPSLKSRVTISRDTSKNQFSLKLSSVTAADTAVYYCARLDFSNYGGAVDYWGQGTTVTVSS VL: DIVMTQSPDSLAVSLGERATINCKASQNVRTAVAWYQQKPGQSPKLMIYSASYRYTGVPDRFSGSGSGTDFTLTISSLQAEDVAVYYCQQYYTTPWTFGGGTKVEIK | – | – | – | – | – | – | – | – | – | % relative activity RG6058-hIgG1/tested antibody [8]: 111%; % relative activity TIGIT-002-H4L3/tested antibody [8]: 100%; EC50 [8]: 0.0415 nM; % relative activity RG6058-hIgG1/tested antibody (human TIGIT ECD-mFc [9]): 135%; % relative activity TIGIT-002-H4L3/tested antibody (human TIGIT ECD-mFc [9]): 100%; EC50 (human TIGIT ECD-mFc [9]): 0.0374 nM
TIGIT-005-H2L1d (antibody, V domains shown) VH: EVQLVQSGAEVKKPGASVKVSCKASGYAFTNYLIEWVRQAPGQRLEWMGVINPGSGGTNYKEKFKGRVTITADKSSSTAYMELSSLRSEDTAVYYCARGEYFFFDYWGQGTTVTVSS VL: DIVMTQSPDSLAVSLGERATINCKASQHVSNAVAWYQHKPGQSPKLLIYSASYRYTGVPDRFSGSGSGTDFTLTISSLQAEDVAVYYCQQHYNTPHTFGGGTKVEIK | – | – | – | – | – | – | – | – | – | % relative activity RG6058-hIgG1/tested antibody [10]: 103%; % relative activity TIGIT-005-H2L1d/tested antibody [10]: 100%; EC50 [10]: 0.0446 nM; % relative activity RG6058-hIgG1/tested antibody (human TIGIT ECD-mFc [11]): 117%; % relative activity TIGIT-005-H2L1d/tested antibody (human TIGIT ECD-mFc [11]): 100%; EC50 (human TIGIT ECD-mFc [11]): 0.0429 nM
